This note sets out measurements from patent US20200199225A1 (AVA LIFESCIENCE, published 2020).

This experiment concerns the target T1, CLL subset 2 typical BCR (HC/LC typical for the CLL subset 2) expressed on the surface of TKO cells.
T1 construct: also called CLL-Subset2 BCR; BCR of Interest
Nature of the experiment: FACS on TKO cells expressing the CLL receptor. The source says:
Monoclonal antibodies were produced using the standard procedure in mice and the subsequent generation of hybridoma cells. The screening for positive clones was not performed by ELISA as usual. Since the target structure is a membrane-bound receptor, it is of central importance to validate the binding of the potential antibodies in a cellular system, i.e. while largely preserving the cell physiological states native to this cell type. First, groups of pooled supernatants were examined for binding events using FACS analysis. For this purpose different CLL-Subset 2 BCR variants were expressed on the surface of a cell line (TKO), which cannot express BCR itself. […] Subsequently, the supernatants of the individual hybridoma clones were examined in more detail with regard to their binding in order to identify highly specific clones with a high affinity.
For the screening procedure, different vectors were used in the previous transformation for the following heavy chain (HC) and light chain (LC) combinations of the corresponding CLL-BCRs, these combinations being used on the surface of the BCR reconstitution system: [0074] Control (transformation vector without BCR) (see FIG. 1 A) [0075] Vector with HC/LC typical for the CLL subset 2 (see FIG. 1 B) [0076] Vector with a non-CLL subset 2 HC/a LC typical for the CLL subset 2 (without target motif; epitope) (see FIG. 1 C) [0077] […]

T1 sequence (heavy, as listed by the source, chain 1 of 2): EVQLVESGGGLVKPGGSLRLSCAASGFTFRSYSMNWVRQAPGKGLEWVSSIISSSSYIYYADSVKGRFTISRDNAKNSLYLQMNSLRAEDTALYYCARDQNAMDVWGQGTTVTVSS
T1 sequence (light, as listed by the source, chain 2 of 2): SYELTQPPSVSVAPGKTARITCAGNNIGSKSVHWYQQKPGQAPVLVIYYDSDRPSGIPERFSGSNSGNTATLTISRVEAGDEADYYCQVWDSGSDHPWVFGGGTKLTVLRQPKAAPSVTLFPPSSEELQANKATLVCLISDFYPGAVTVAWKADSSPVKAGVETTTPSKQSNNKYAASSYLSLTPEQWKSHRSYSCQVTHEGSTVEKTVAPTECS

B1: AVA-mAb01 (antibody, V domains shown)
VH: QVQLQQSGPGLVQPSQSLSITCTVSGFSLTSYGIHWVRQSPGKGLEWLGVIWRGGGTDSNAAFMSRLSITKDNSKSQVFFKMNSLQADDTAIYYCARSRYDEEESMNYWGQGTSVTVSS
VL: QIVLTQSPASLSASVGETVTITCRASGNIHSYLAWYQQKQGKSPQLLVYNAKTLADGVPSRFSGSGSGTQYSLKINSLQPEDFGSYYCQHFWNTPPTFGAGTKLELK
notes: Murine monoclonal antibody from a hybridoma, tested as hybridoma supernatant and detected with a fluorescence-labeled anti-mouse-IgG antibody; the constant regions are not; also called specific monoclonal antibody against Subset-2; the selected antibody
On to B1, for which the binding result is recorded as “binds”.
